In assay [1] the target is calcineurin. Description: Calcineurin phosphatase assay. The format is biochemical, bovine. As to conditions: in presence of FK-506, CaN, CaM, Ca^2+, Mg^2+; read-out: IC50 for inhibition of CaN. On the procedure: For a side-by-side comparison, FKBP12 was also tested for its ability to inhibit calcineurin in the presence of drug.
The calcineurin phosphatase assay is a modified version of previous assays (Liu, J., et al., Cell, 66, 807-815 (1991); Manalan, A., et al., Proc. Natl. Acad. Sci. U.S.A., 80, 4291-4295 (1983)). Reaction mixtures ([…] contained: 40 mM Tris (pH 8), 100 mM NaCl, 6 mM Mg(OAc)2, 0.1 mM CaCl2, 0.1 mg/ml BSA, 0.5 mM dithiothreitol, 190 nM bovine brain calmodulin (Sigma), 3 nM bovine brain calcineurin (Sigma), and 40 μM [^33 P]RII peptide (Peptides International) (600 cpm/pmole). Reaction mixtures were pre-incubated for 30 min at 30° C. prior to addition of the labeled peptide. The reaction was initiated by addition of the peptide and the dephosphorylation reaction was allowed to proceed for 10 min at 30° C. The reaction was terminated by the addition of 0.5 ml of 5% trichloroacetic acid containing 100 mM sodium phosphate (stop buffer) and applied to a 0.5 ml Dowex 50W-X8, H^+ column. Free [^33 P]phosphate was eluted from the column with 0.5 ml of stop buffer followed by 0.5 ml of water.

In assay [2] the test system is calcineurin. Description: FKBP.FK-506.CaN complex-formation assay (size-exclusion column, Western analysis). As to conditions: partially purified FKBPs, CaM, Ca^2+, Mg^2+ and FK-506. The format is binding, bovine. On the procedure:
In the modified assay, samples were assayed by Western analysis using the anti-C-terminal peptide antibody in order to identify FKBP12 and FKBP12.6 in various chromatographic fractions.
In the first experiment, FKBP12 and FKBP12.6 were partially purified by preparative HPLC gel filtration chromatography on a Bio-Sil TSK-125 column. These partially purified FKBPs (containing both FKBP12 and FKBP12.6) are devoid of CaN which separates completely from them on this column. FKBP12 and FKBP12.6 co-elute at fractions 26 and 27 on the analytical sizing column (G2000SW) used in this experiment. […] Because this crude FKBP material also contains FKBP12.6, it can also be observed migrating slightly above FKBP12 in FIG. 4A.
To more carefully examine the requirements for FKBP12.6 complex formation with CaN, experiments were conducted using purified FKBP12.6.
The incubation buffer contained 20 mM Tris (pH 7.5), 100 mM NaCl, 6 mM MgCl2, 0.1 mM CaCl2, 0.1 mg/ml BSA, and 0.5 mM dithiothreitol. The incubation reaction was chromatographed on a Bio-Sil SEC400 HPLC column (Bio-Rad) at a flow rate of 1 ml/min and 1 min fractions were collected. The chromatography buffer was the same as the incubation buffer except that BSA was omitted. 30 μl of fractions 19-29 were subjected to electrophoresis on a 16% Novex Tris-Glycine gel and Western analysis was performed as described above.
For orientation: Size exclusion chromatography separates by hydrodynamic size, large species first.

Assay [3] is described as follows: Peptidyl-prolyl cis-trans isomerase (PPIase) activity. The format is biochemical. As to conditions: homogeneous FKBP12 vs partially pure (about 25%) FKBP12.6. As for the experimental part: PPIase assays were performed as described (Fischer, G., et al., Nature, 337,476-478 (1989)) with the following changes: the peptide substrate used was N-succinyl-Ala-Leu-Pro-Phe-p-nitroanilide (BACHEM, California) at a final concentration of 72 μM and chymotrypsin (Sigma) was present in the assay at a concentration of 6 μM. The total reaction volume was 1.5 ml. The release of p-nitroanilide by chymotrypsin was measured by following the increase in absorbance at 405 nm on a Beckman DU68 spectrophotometer. After an initial rapid rise in absorbance due to hydrolysis of the trans peptide, the slow secondary increase in absorbance which reflects the cis-to-trans conversion of the peptide by the PPIase was measured at 3 sec intervals out to 1.5 min. The data were fitted to a simple first-order rate equation and the first-order rate constant, k (s^-1), calculated.

One may read the IC50 as the concentration that inhibits the measured activity by half.

B1: FKBP12: abundant, cytosolic 11.8 kDa protein termed the FK-506 binding protein; bovine sequence SEQ ID NO:2 (protein)
chain: GVQVETISPGDGRTFPKRGQTCVVHYTGMLEDGKKFDSSRDRNKPFKFVLGKQEVIRGWEEGVAQMSVGQRAKLTISPDYAYGATGHPGIIPPNATLIFDVELLKLE
For B1, at calcineurin [1], the IC50 was determined as 9.9 nM. For the same molecule, the “complex formation with CaN” value in the assay with calcineurin [2] is given as “a significant fraction of FKBP12 is in the FKBP12.FK-506-CaN complex”. For the same molecule, the “slope of PPIase rate relative to FKBP12.6” value in assay [3] stood at 4.1 fold.
